Results from patent publication US20160067347A1, “APJ RECEPTOR AGONISTS AND USES THEREOF” (AMGEN INC., priority 2012, published 2016).
Where two headings read alike, the source gives them in different places. Each block holds one compound with its values, some of them ahead of it. *1 amine or outer side, *2 acyl side, *3 side chain or, on linkers, in order; H or OH if unused. Where a SMILES comes first, the peptide text is derived from it. Primed or numbered codes have the meaning given here. Where no end group is shown, it is not given here. [ ]: non-standard residue; d: D form. Atz = (S)-2-amino-3-(1H-1,2,3-triazol-4-yl)propanoyl residue, substituent (PEG) on triazole N1, O=C([C@H](Cc1cn([*:3])nn1)N[*:1])[*:2]; Oic = O=C(O)[C@@H]1C[C@@H]2CCCC[C@@H]2N1; Phe(4-Cl) = N[C@@H](Cc1ccc(Cl)cc1)C(=O)O; 1Nal = N[C@@H](Cc1cccc2ccccc12)C(=O)O; hArg = N=C(N)NCCCC[C@H](N)C(=O)O; Cha = N[C@@H](CC1CCCCC1)C(=O)O; 40K‑mPEG = 40 kDa methoxy-PEG; pGlu = O=C1CC[C@@H](C(=O)O)N1; PEG11′ = not defined here; PEG23′ = not defined here; PEG35′ = not defined here; PEG47′ = not defined here; Nle = CCCC[C@H](N)C(=O)O

Assays:
in vitro = conditions: rat
Experimental: Apelin peptides were spiked into freshly prepared mouse, rat, dog and human EDTA plasma to a final concentration of 5 μM. The plasma samples were then incubated at 37° C. over a period of 4 hr. Up to 8 time points were sampled to facilitate estimation of in vitro half life in plasma matrices. In a typical experiment, aliquot of 100 μL of plasma sample was taken from the incubation vial, followed by addition of 300 μL of MeOH containing internal standard. The quenched sample was centrifuged at 5500 g for 15 min after 15 min vortex in room temperature. The supernatant was then analyzed by high resolution LC-MS.

FIGURE 4B [1] = test: FIGURE 4B
Excerpt: (§1) Table printed on a drawing sheet, FIGURE 4B
Section band inside the table: Peptides with triazole linker and 20 kDa PEG modification
(§2) The patent's description of the figure: FIGS. 4A-B. In vitro stability of APJ agonists in plasma.
(§3) First reader's note: Rows 3 and 9 of the grid are section headings spanning all columns (linker type of the 20 kDa PEGylated peptides).

rat APJ receptor = target: T1, rat APJ receptor (Rattus norvegicus, UniProt Q9JHG3); test: [35S]GTPγS assay, membranes from stable cell lines, rat APJ; type: biochemical; conditions: for in vitro potency relative to endogenous pyr apelin 13 (SEQ ID NO: 128) / in vitro potency, mono vs bis vs tetrakis 20 kDa PEG peptides: FIG. 11, in vitro rat GTPγS assay; for potency relative to monopeptide (SEQ ID NO: 494): FIG. 13, PEGylated bis-peptides on low molecular weight monodispersed PEG
T1 construct: expressed in transfected cells; CHO is named only for the cAMP assay
T1 sequence (Q9JHG3 1-377): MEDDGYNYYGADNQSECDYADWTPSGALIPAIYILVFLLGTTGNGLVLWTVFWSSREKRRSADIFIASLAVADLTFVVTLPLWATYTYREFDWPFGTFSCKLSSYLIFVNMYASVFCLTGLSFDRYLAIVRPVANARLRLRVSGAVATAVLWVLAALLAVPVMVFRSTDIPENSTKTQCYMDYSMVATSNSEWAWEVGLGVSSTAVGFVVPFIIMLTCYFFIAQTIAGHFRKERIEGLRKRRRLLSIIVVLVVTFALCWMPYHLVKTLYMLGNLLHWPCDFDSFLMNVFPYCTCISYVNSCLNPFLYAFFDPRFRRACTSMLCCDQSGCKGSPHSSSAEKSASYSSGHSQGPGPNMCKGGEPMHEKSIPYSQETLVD
Experimental: To assay for GTP, membranes were prepared from stable cell lines and used to determine the efficacy/potency of the modified peptides. The optimal experimental conditions for the concentrations of GDP, MgCl2 and NaCl in the assay buffer were initially determined. The membranes were incubated with modified peptides in the assay buffer. The reaction was initiated by addition of [^35S] GTPγS in the absence or presence of peptides and incubated at room temperature for 90 min. […] Bound [^35S] GTPγS was separated from free radiolabel by filtration. The filter bound radioactivity was determined by liquid scintillation counting.
A series of PEGylated peptides were prepared and screened in vitro to explore the effects of PEG size and peptide valency on potency and efficacy in the GTPγS assay. In the assay 20 kDA and 40 kDA PEG were compared (FIG. 10).
Additionally mono- and multivalent bis, and tetrakis-peptide conjugated PEGS were prepared to explore peptide valency. […]

FIGURE 4B [2] = test: FIGURE 4B; remark: listed apart in the source
Excerpt: as §1
Section band inside the table: Peptides with thioether linker and 20 kDa PEG modification
as §2, §3

Compound: CCCC[C@H](NC(=O)[C@@H]1CCCN1C(=O)CNC(=O)[C@H](CCCCN)NC(=O)[C@H](Cc1cn(CCOCCOCCOCCOCCOCCOCCOCCOCCOCCOCCN)nn1)NC(=O)[C@H](Cc1ccccc1)NC(=O)[C@H](CC(C)C)N(C)C(=O)[C@H](CCCCNC(=N)N)NC(=O)[C@@H]1CCCN1C(=O)[C@H](CCCNC(=N)N)NC(=O)[C@@H]1CCC(=O)N1)C(=O)N[C@H](Cc1ccccc1)C(=O)O [compound 29]
remaining at 1 h, 5 μM (in vitro; plasma): 50%

remaining at 1 h, 5 μM (in vitro; rat EDTA plasma): 63%
Compound: CCCC[C@H](NC(=O)[C@@H]1CCCN1C(=O)CNC(=O)[C@H](CCCCN)NC(=O)[C@H](Cc1c[nH]cn1)NC(=O)[C@H](CO)NC(=O)[C@H](CC1CCCCC1)NC(=O)[C@H](CCCCNC(=N)N)NC(=O)[C@@H]1CCCN1C(=O)[C@H](CCCNC(=N)N)NC(=O)[C@@H]1CCC(=O)N1)C(=O)N[C@@H](Cc1cccc2ccccc12)C(=O)O [compound 31] ([pGlu]RP[hArg][Cha]SHKGP[Nle][1Nal]-OH; C-terminus assumed)

remaining at 1 h, 5 μM (in vitro; rat EDTA plasma): 64.6%
Compound: CCCC[C@H](NC(=O)[C@@H]1CCCN1C(=O)CNC(=O)[C@H](CCCCN)NC(=O)[C@H](Cc1c[nH]cn1)NC(=O)[C@H](CO)NC(=O)[C@H](CC1CCCCC1)NC(=O)[C@H](CCCCNC(=N)N)NC(=O)[C@@H]1CCCN1C(=O)[C@H](CCCNC(=N)N)NC(=O)[C@@H]1CCC(=O)N1)C(=O)N[C@@H](Cc1ccc(Cl)cc1)C(=O)O [compound 32] ([pGlu]RP[hArg][Cha]SHKGP[Nle][Phe(4-Cl)]-OH; C-terminus assumed)

Compound: CCCC[C@H](NC(=O)[C@@H]1C[C@@H]2CCCC[C@@H]2N1C(=O)CNC(=O)[C@H](CCCCN)NC(=O)[C@H](Cc1cn(CCOCCOCCOCCOCCOCCOCCOCCOCCOCCOCCN)nn1)NC(=O)[C@H](Cc1ccccc1)NC(=O)[C@H](CC1CCCCC1)NC(=O)[C@H](CCCCNC(=N)N)NC(=O)[C@@H]1CCCN1C(=O)[C@H](CCCNC(=N)N)NC(=O)[C@@H]1CCC(=O)N1)C(=O)N[C@H](Cc1ccccc1)C(=O)O [compound 33]
remaining at 1 h, 5 μM (in vitro; plasma): 66%

Compound: CCCC[C@H](NC(=O)[C@@H]1C[C@@H]2CCCC[C@@H]2N1C(=O)CNC(=O)[C@H](CCCCN)NC(=O)[C@H](Cc1c[nH]cn1)NC(=O)[C@H](Cc1cn(CCOCCOCCOCCOCCOCCOCCOCCOCCOCCOCCN)nn1)NC(=O)[C@H](CC1CCCCC1)NC(=O)[C@H](CCCCNC(=N)N)NC(=O)[C@@H]1CCCN1C(=O)[C@H](CCCNC(=N)N)NC(=O)[C@@H]1CCC(=O)N1)C(=O)N1CCC[C@H]1C(=O)N[C@@H](Cc1ccc(Cl)cc1)C(=O)O [compound 34]
remaining at 1 h, 5 μM (in vitro; plasma): 72%

Compound: CCCC[C@H](NC(=O)[C@@H]1C[C@@H]2CCCC[C@@H]2N1C(=O)CNC(=O)[C@H](CCCCN)NC(=O)[C@H](Cc1c[nH]cn1)NC(=O)[C@H](Cc1cn(CCOCCOCCOCCOCCOCCOCCOCCOCCOCCOCCN)nn1)NC(=O)[C@H](CC(C)C)N(C)C(=O)[C@H](CCCCNC(=N)N)NC(=O)[C@@H]1CCCN1C(=O)[C@H](CCCNC(=N)N)NC(=O)[C@@H]1CCC(=O)N1)C(=O)N[C@@H](Cc1ccc(Cl)cc1)C(=O)O [compound 35]
remaining at 1 h, 5 μM (in vitro; plasma): 82%

Compound: CCCC[C@H](NC(=O)[C@@H]1C[C@@H]2CCCC[C@@H]2N1C(=O)CNC(=O)[C@H](CCCCN)NC(=O)[C@H](Cc1c[nH]cn1)NC(=O)[C@H](Cc1cn(CCOCCOCCOCCOCCOCCOCCOCCOCCOCCOCCN)nn1)NC(=O)[C@H](CC(C)C)N(C)C(=O)[C@H](CCCCNC(=N)N)NC(=O)[C@@H]1CCCN1C(=O)[C@H](CCCNC(=N)N)NC(=O)[C@@H]1CCC(=O)N1)C(=O)N1CCC[C@H]1C(=O)N[C@@H](Cc1ccc(Cl)cc1)C(=O)O [compound 36]
remaining at 1 h, 5 μM (in vitro; plasma): 88%

Compound: Atz(20K-mPEG)- KFRRQRP[hArg][Cha]SHKG[Oic][Nle]P[4-Cl-F] [compound 49]
in vitro plasma stability (t1/2, min) | HUMAN (FIGURE 4B [1]): 176 min | in vitro plasma stability (t1/2, min) | MOUSE (FIGURE 4B [1]): 55 min | in vitro plasma stability (t1/2, min) | RAT (FIGURE 4B [1]): 193 min

Compound: SEQ ID NO: 129: 20 kDa PEG-mono(Atz-KFRRQRP[hArg][Cha]SHKG[Oic][Nle]P[4-Cl—F]) (XKFRRQRPRLSHKGPMPF; not fully specified; 20 kDa PEG, Atz linker; non-natural residues; source: /note="N-term may or may not be modified by conjugation linker, an acyl group, an aryl group, an alkyl group, NPeg11, a PEG derivative or other serum half-life prolonging group"; MOD_RES (1)..(1): Atz)
in vitro potency relative to endogenous pyr apelin 13 (SEQ ID NO: 128) (rat APJ receptor): significantly more potent | in vitro potency, mono vs bis vs tetrakis 20 kDa PEG peptides (rat APJ receptor): approximately equipotent

Compound: SEQ ID NO: 130: 20 kDa PEG-bis(Atz-KFRRQRP[hArg][Cha]SHKG[Oic][Nle]P[4-Cl—F]) (KFRRQRP[hArg][Cha]SHKG[Oic][Nle]P[Phe(4-Cl)]; not fully specified (N-terminus); also: 20 kDa PEG carries two peptide copies)
in vitro potency relative to endogenous pyr apelin 13 (SEQ ID NO: 128) (rat APJ receptor): significantly more potent | in vitro potency, mono vs bis vs tetrakis 20 kDa PEG peptides (rat APJ receptor): approximately equipotent

Compound: SEQ ID NO: 131: 20 kDa PEG-tetrakis(Atz-KFRRQRP[hArg][Cha]SHKG[Oic][Nle]P[4-Cl—F]) (KFRRQRP[hArg][Cha]SHKG[Oic][Nle]P[Phe(4-Cl)]; not fully specified (N-terminus); also: 20 kDa PEG carries four peptide copies)
in vitro potency relative to endogenous pyr apelin 13 (SEQ ID NO: 128) (rat APJ receptor): significantly more potent | in vitro potency, mono vs bis vs tetrakis 20 kDa PEG peptides (rat APJ receptor): approximately equipotent

potency relative to monopeptide (SEQ ID NO: 494) (rat APJ receptor): reduced potency
Compound: SEQ ID NO: 133: PEGylated bis-peptide, the shortest PEG conjugate (~0.6 kDa PEG) ([PEG11′][Atz]KFRRQRP[hArg][Cha]SHKG[Oic][Nle]P[Phe(4-Cl)]; not fully specified (residue 1); numbers in words are those of the source; also: bis-peptide: two peptide chains joined through PEG11 on Atz)

potency relative to monopeptide (SEQ ID NO: 494) (rat APJ receptor): increased potency
Compound: SEQ ID NO: 134: PEGylated bis-peptide, 1 kDa PEG conjugate ([PEG23′][Atz]KFRRQRP[hArg][Cha]SHKG[Oic][Nle]P[Phe(4-Cl)]; not fully specified (residue 1); numbers in words are those of the source; also: bis-peptide: two peptide chains joined through PEG23 on Atz)

potency relative to monopeptide (SEQ ID NO: 494) (rat APJ receptor): increased potency
Compound: SEQ ID NO: 135: PEGylated bis-peptide, 1.7 kDa PEG conjugate ([PEG35′][Atz]KFRRQRP[hArg][Cha]SHKG[Oic][Nle]P[Phe(4-Cl)]; not fully specified (residue 1); numbers in words are those of the source; also: bis-peptide: two peptide chains joined through PEG35 on Atz)

potency relative to monopeptide (SEQ ID NO: 494) (rat APJ receptor): increased potency
Compound: SEQ ID NO: 136: PEGylated bis-peptide, 2.2 kDa PEG conjugate ([PEG47′][Atz]KFRRQRP[hArg][Cha]SHKG[Oic][Nle]P[Phe(4-Cl)]; not fully specified (residue 1); numbers in words are those of the source; also: bis-peptide: two peptide chains joined through PEG47 on Atz)

Emax relative to the 20 kDa PEGylated peptide (rat APJ receptor; FIG. 10): 84 % of 20 kDa
Compound: SEQ ID NO: 474: 40 Kda PEGylated peptide compared with the 20 kDa PEGylated peptide SEQ ID NO: 24 ({40K‑mPEG-Thiopropionyl}-KFRRQRP[hArg][Cha]SHKG[Oic][Nle]P[Phe(4-Cl)]-OH)

Compound: Thiopropionyl(20K-mPEG)- KFRRQRP[hArg][Cha]SHKG[Oic][Nle]P[4-Cl-F] [compound 44]
in vitro plasma stability (t1/2, min) | DOG (FIGURE 4B [2]): 172 min | in vitro plasma stability (t1/2, min) | HUMAN (FIGURE 4B [2]): 142 min | in vitro plasma stability (t1/2, min) | MOUSE (FIGURE 4B [2]): 37 min | in vitro plasma stability (t1/2, min) | RAT (FIGURE 4B [2]): 180 min

Compound: Thiopropionyl(20K-mPEG)- QRP[hArg][Cha]SHKG[Oic][Nle]P[4-Cl-F] [compound 48]
in vitro plasma stability (t1/2, min) | DOG (FIGURE 4B [2]): 219 min | in vitro plasma stability (t1/2, min) | HUMAN (FIGURE 4B [2]): 307 min | in vitro plasma stability (t1/2, min) | MOUSE (FIGURE 4B [2]): 53 min | in vitro plasma stability (t1/2, min) | RAT (FIGURE 4B [2]): 303 min

Compound: Thiopropionyl(20K-mPEG)- RQRP[hArg][Cha]SHKG[Oic][Nle]P[4-Cl-F] [compound 47]
in vitro plasma stability (t1/2, min) | DOG (FIGURE 4B [2]): 279 min | in vitro plasma stability (t1/2, min) | HUMAN (FIGURE 4B [2]): 300 min | in vitro plasma stability (t1/2, min) | MOUSE (FIGURE 4B [2]): 41 min
